From patent US20080103095A1

Target: firefly luciferase (firefly) [luciferase: P08659]
Assay: cell-based or functional assay

firefly luciferase (firefly) [luciferase: P08659], sequence (P08659 whole entry): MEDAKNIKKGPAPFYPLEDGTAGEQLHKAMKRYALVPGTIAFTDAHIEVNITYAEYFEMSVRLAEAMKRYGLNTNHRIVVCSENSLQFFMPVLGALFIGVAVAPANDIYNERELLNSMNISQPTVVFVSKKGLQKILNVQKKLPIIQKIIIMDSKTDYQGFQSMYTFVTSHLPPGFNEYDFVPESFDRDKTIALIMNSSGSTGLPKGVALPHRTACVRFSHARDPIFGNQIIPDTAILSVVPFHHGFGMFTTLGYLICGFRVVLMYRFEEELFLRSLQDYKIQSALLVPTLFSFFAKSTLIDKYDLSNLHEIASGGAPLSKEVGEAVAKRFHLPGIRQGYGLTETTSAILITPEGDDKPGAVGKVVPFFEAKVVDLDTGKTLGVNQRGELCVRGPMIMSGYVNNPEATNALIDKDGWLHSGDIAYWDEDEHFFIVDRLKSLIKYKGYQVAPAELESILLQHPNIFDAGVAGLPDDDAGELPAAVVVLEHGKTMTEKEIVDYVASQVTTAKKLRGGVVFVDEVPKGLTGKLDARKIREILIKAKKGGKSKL

| Substance | percent protein aggregation (light scattering, OD 320 nm, 43° C 30 min; luciferase heated alone = 100%) [%] |
| --- | --- |
| hsp110 as used in Examples 6, 8 and 10 (source and species not stated) | 20 |
| grp170 as used in Examples 6 and 8 (source and species not stated) | 40 |
